From article PMC2768864

Molecular target: Ixodes ricinus contact phase inhibitor (Ir-CPI) (Ixodes ricinus) (UniProt Q9GP15)
Test: SPR

Ka: 3.3e+08 M⁻¹
ka1 (two-state model, formation of AB): 900000 M⁻¹ s⁻¹
ka2 (two-state model, forward conformation change): 0.00582 s⁻¹
kd1 (two-state model, dissociation of AB): 0.00535 s⁻¹
kd2 (two-state model, backward conformation change): 0.00614 s⁻¹
Substance: plasmin (enzyme)
